Measurements published in US20150098989A1.
Non-standard residues stand in square brackets, D forms with d. Met(O) = CS(=O)CC[C@H](N)C(=O)O

How the values were obtained:
[1] = target: SNARE complex (VAMP, syntaxin, SNAP-25 bound to GST) (UniProt P60880); test: ELISA of SNARE complex formation (SNAP-25-GST, syntaxin, immobilized VAMP); compound at 0.5 mM
[2] = target: SNARE complex (VAMP, syntaxin, SNAP-25 bound to GST) (UniProt P60880); test: ELISA of SNARE complex formation (SNAP-25-GST, syntaxin, immobilized VAMP); compound at 2.5 mM
[3] = target: SNARE complex (VAMP, syntaxin, SNAP-25) (UniProt P60880); test: SDS-PAGE of SNARE complex (VAMP, syntaxin, SNAP-25), image analysis; compound at 1 mM
[4] = target: SNARE complex (VAMP, syntaxin, SNAP-25) (UniProt P60880); test: SDS-PAGE of SNARE complex (VAMP, syntaxin, SNAP-25), image analysis; compound at 5 mM

Sequence of SNARE complex (VAMP, syntaxin, SNAP-25 bound to GST) (P60880 whole entry, one chain of several): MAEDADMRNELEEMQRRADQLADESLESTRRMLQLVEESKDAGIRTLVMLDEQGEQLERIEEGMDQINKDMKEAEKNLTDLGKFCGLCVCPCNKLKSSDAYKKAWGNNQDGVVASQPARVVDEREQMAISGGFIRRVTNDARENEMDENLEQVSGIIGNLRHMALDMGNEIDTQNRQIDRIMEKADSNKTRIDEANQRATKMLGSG
Sequence of SNARE complex (VAMP, syntaxin, SNAP-25) (P60880 whole entry, one chain of several): as above

With Ac-DHLKKWM-NH2 [Ac-SEQ ID NO: 22-NH2] the % inhibition formation SNARE complex [1] was 18% and the % inhibition formation SNARE complex [2] was 72%.

Work on Ac-DHFLNWM-NH2 [Ac-SEQ ID NO: 34-NH2] yielded a % inhibition formation SNARE complex [3] of 14%, a % inhibition formation SNARE complex [4] of 59% and a % inhibition formation SNARE complex [1] of 27%. The % inhibition formation SNARE complex [2] was 85%.

Ac-NDLKDWM-NH2 [Ac-SEQ ID NO: 23-NH2] was tested, and the % inhibition formation SNARE complex [1] was 10% and the % inhibition formation SNARE complex [2] was 60%.

With Ac-EHFLQWM-NH2 [Ac-SEQ ID NO: 30-NH2] the % inhibition formation SNARE complex [1] was 24% and the % inhibition formation SNARE complex [2] was 71%.

Ac-DHFQQRM-NH2 [Ac-SEQ ID NO: 24-NH2] was tested, and the % inhibition formation SNARE complex [3] was 48%, the % inhibition formation SNARE complex [4] was 100% and the % inhibition formation SNARE complex [1] was 41%. It also gave a % inhibition formation SNARE complex [2] of 55%.

With Ac-QHLKNWM-NH2 [Ac-SEQ ID NO: 27-NH2] the % inhibition formation SNARE complex [2] was 14%.

With Ac-QDFLHWM-NH2 [Ac-SEQ ID NO: 2-NH2] the % inhibition formation SNARE complex [3] was 37%, the % inhibition formation SNARE complex [4] was 80% and the % inhibition formation SNARE complex [1] was 26%. For the same binder, the % inhibition formation SNARE complex [2] was 64%.

For Ac-NHFLNWM-NH2 [Ac-SEQ ID NO: 15-NH2], the % inhibition formation SNARE complex [3] was 50%, the % inhibition formation SNARE complex [4] was 100% and the % inhibition formation SNARE complex [1] was 48%. For the same binder, the % inhibition formation SNARE complex [2] was 42%.

Ac-EDLKRWM-NH2 [Ac-SEQ ID NO: 14-NH2] showed a % inhibition formation SNARE complex [3] of 83%, a % inhibition formation SNARE complex [4] of 100% and a % inhibition formation SNARE complex [1] of 43%. It also gave a % inhibition formation SNARE complex [2] of 67%.

Ac-QHLHNVM-NH2 [Ac-SEQ ID NO: 3-NH2] gave a % inhibition formation SNARE complex [1] of 31% and a % inhibition formation SNARE complex [2] of 64%.

With Ac-RHFLQWM-NH2 [Ac-SEQ ID NO: 13-NH2] the % inhibition formation SNARE complex [2] was 20%.

With Ac-QHLKEWM-NH2 [Ac-SEQ ID NO: 12-NH2] the % inhibition formation SNARE complex [1] was 20% and the % inhibition formation SNARE complex [2] was 71%.

Binder Ac-EELKRWM-NH2 [Ac-SEQ ID NO: 116-NH2] has a % inhibition formation SNARE complex [2] of 69%.

For Ac-EHLKKWM-NH2 [Ac-SEQ ID NO: 8-NH2], the % inhibition formation SNARE complex [1] was 11% and the % inhibition formation SNARE complex [2] was 44%.

Work on Ac-NHLKNWM-NH2 [Ac-SEQ ID NO: 31-NH2] yielded a % inhibition formation SNARE complex [1] of 26% and a % inhibition formation SNARE complex [2] of 59%.

In the case of Ac-ENLKRWM-NH2 [Ac-SEQ ID NO: 117-NH2], the % inhibition formation SNARE complex [2] is reported as 65%.

For Ac-DHFLDW[Met(O)]-NH2 [Ac-SEQ ID NO: 56-NH2], the % inhibition formation SNARE complex [1] was 9%.

Ac-NHLKHWM-NH2 [Ac-SEQ ID NO: 32-NH2] was tested, and the % inhibition formation SNARE complex [2] was 19%.

Ac-DHFLDWM-NH2 [Ac-SEQ ID NO: 25-NH2] gave a % inhibition formation SNARE complex [3] of 83%, a % inhibition formation SNARE complex [4] of 100% and a % inhibition formation SNARE complex [1] of 40%. The % inhibition formation SNARE complex [2] was 71%.

Ac-EHLKQWM-NH2 [Ac-SEQ ID NO: 1-NH2] gave a % inhibition formation SNARE complex [3] of 59%, a % inhibition formation SNARE complex [4] of 100% and a % inhibition formation SNARE complex [1] of 33%. It also gave a % inhibition formation SNARE complex [2] of 63%.
